± gives the uncertainty stated by the source.
Experiment: self-splicing fitness, log relative to wild type (ln ratio); higher = more splicing; Tetrahymena group I intron in knt gene, E. coli kanamycin selection, DiMSum; sequences stand for … in CUCUCU…GGAGGGAAAAGUUAUCAGGCAUGCACCUGGUAGCUAGUCUUUAAACCAAUAGAUUGCAUCGGUUUAAAAGGCAAGACCGUCAAAUUGCGGGAAAGGGGUCAACAGCCGUUCAGUACCAAGUCUCAGGGGAAACUUUGAGAUGGCCUUGCAAAGGGUAUGGUAAUAAGCUGACGGACAUGGUCCUAACCACGCAGCCAAGUCCUAAGUCAACAGAUCUUCUGUUGAUAUGGAUGCAGUUCACAGACUAAAUGUCGGUCGGGGAAGAUGUAUUCUUCUCAUAAGAUAUAGUCGGACCUCUCCUUAAUGGGAGCUAGCGGAUGAAGUGAUGCAACACUGGAGCCGCUGGGAACUAAUUUGUAUGCGAAAGUAUAUUGAUUAGUUUUGGAGUACUCGUGGUCG
Procedure, shortened: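 Pooled colonies went to amplicon sequencing on an Illumina HiSeq 2500 after six replicate transformations. The plates were LB agar with 100 μg/mL carbenicillin, 50 μM IPTG and 0.2% rhamnose, with or without 25 μg/mL kanamycin, incubated overnight at 37°C or 30°C. The E. coli BL21(DE3) library had all eight P1ex-region intron nucleotides randomised, the intron placed in the knt kanamycin-resistance gene on pET-22b(+). DiMSum fitness is the error-weighted combination of replicate fold changes, kanamycin against none, normalised to wild type.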

Sequence | self-splicing fitness (ln) (30 °C) | self-splicing fitness (ln) (37 °C)
GCUAAGCAAUAUUACGAGUA | -1.73 ± 0.18 | -1.31 ± 0.12
CAUUAGCAAUAUUACGCUCA | -1.21 ± 0.07 | -0.215 ± 0.073
GGACAGCAAUAUUACGUGAA | -0.306 ± 0.057 | -0.142 ± 0.062
UCGCAGCAAUAUUACGGCUU | -1.16 ± 0.08 | 0.404 ± 0.12
ACUUAGCAAUAUUACGAAAG | -2.69 ± 0.19 | -0.697 ± 0.17
AAGCAGCAAUAUUACGGCAA | -0.0737 ± 0.06 | 0.139 ± 0.081
UACAAGCAAUAUUACGUAGA | -2.84 ± 0.14 | -1.46 ± 0.13
GCGGAGCAAUAUUACGUUAU | -3.7 ± 0.19 | -2.81 ± 0.15
CUGUAGCAAUAUUACGAAGC | -4.57 ± 0.42 | -2.67 ± 0.38
ACGAAGCAAUAUUACGAAUC | -3.29 ± 0.2 | -2.9 ± 0.25
AGAAAGCAAUAUUACGACGC | -0.72 ± 0.11 | -0.219 ± 0.14
GUGGAGCAAUAUUACGAAUU | – | -3.14 ± 0.47
UUGUAGCAAUAUUACGUACG | -1.24 ± 0.12 | -0.138 ± 0.16
GCCAAGCAAUAUUACGAAUG | -3.56 ± 0.2 | -1.84 ± 0.16
UGGCAGCAAUAUUACGAGAG | -2.95 ± 0.21 | -2.74 ± 0.29
CACUAGCAAUAUUACGGGAU | -4.27 ± 0.21 | -2.58 ± 0.15
GACCAGCAAUAUUACGACAG | -3.85 ± 0.18 | -2.22 ± 0.18
UGUCAGCAAUAUUACGUUGC | – | -1.75 ± 0.46
UGUAAGCAAUAUUACGUUUG | -1.24 ± 0.069 | -0.871 ± 0.084
ACUAAGCAAUAUUACGUUUA | -3.27 ± 0.17 | -2.48 ± 0.14

Sequence | self-splicing fitness (ln) (30 °C) | self-splicing fitness (ln) (37 °C)
UAUAAGCAAUAUUACGGUUG | -1.61 ± 0.11 | -0.603 ± 0.13
AGACAGCAAUAUUACGUGGG | -3.37 ± 0.13 | -2.37 ± 0.13
GGGAAGCAAUAUUACGUGCG | -1.4 ± 0.11 | -0.371 ± 0.13
AUGCAGCAAUAUUACGCGCU | -1.37 ± 0.097 | -1.22 ± 0.12
CUCCAGCAAUAUUACGUCGG | -3.14 ± 0.15 | -2.36 ± 0.15
AUAGAGCAAUAUUACGAAUG | -3.68 ± 0.19 | -1.96 ± 0.17
GUCCAGCAAUAUUACGCAGG | -4.01 ± 0.18 | -3.72 ± 0.24
AAGCAGCAAUAUUACGGGAA | -3.05 ± 0.22 | -2.15 ± 0.17
ACGGAGCAAUAUUACGAAGC | -4.24 ± 0.39 | -2.4 ± 0.18
GAGUAGCAAUAUUACGCCAG | -3.3 ± 0.26 | -2.75 ± 0.48
GGCUAGCAAUAUUACGGGCC | – | -1.98 ± 0.42
GGACAGCAAUAUUACGUAAA | -0.529 ± 0.12 | 0.362 ± 0.16
GAGGAGCAAUAUUACGAUCU | -0.772 ± 0.12 | -0.217 ± 0.12
GGGCAGCAAUAUUACGCGUU | -0.662 ± 0.073 | -0.349 ± 0.087
ACAGAGCAAUAUUACGACAA | – | -2.31 ± 0.21
ACGGAGCAAUAUUACGGAUU | -3.94 ± 0.31 | -0.896 ± 0.16
GACGAGCAAUAUUACGGAAA | -2.69 ± 0.3 | -1.47 ± 0.29
CUGCAGCAAUAUUACGCACA | -2.82 ± 0.19 | -1.48 ± 0.19
AGUAAGCAAUAUUACGAGAG | -2.28 ± 0.24 | -2.49 ± 0.29
